Paper PMC3407074

Experiments:
[1] = target: recP12-Cd4d3/4-bio (Plasmodium falciparum); assay: SPR; BIAcore T100, 37°C; recP12 captured on a streptavidin chip; two-fold dilutions from 3.6 µM recP41-Cd4d3/4-6H at 100 µL/min; kinetic analysis, 1:1 binding model
[2] = target: recP12-Cd4d3/4-bio (Plasmodium falciparum); assay: SPR; BIAcore T100, 37°C; recP12-Cd4d3/4-bio captured on a streptavidin chip, biotinylated Cd4d3/4 as reference; serial dilutions of recP41-Cd4d3/4-6H at 10 µL/min; equilibrium analysis, Langmuir isotherm

recP41-Cd4d3/4-6H (domain or fragment)
koff [1]: 0.0212 s⁻¹
kon [1]: 134000 M⁻¹ s⁻¹
Kd [2]: 310 nM
